Values belong to the molecule of their own block, whether it stands above or below them. Bridge positions count the residues as written; N and C are the ends. Square brackets hold non-standard residues; d marks the D form. Primed or numbered codes have the meaning given here. Peptide text beside a SMILES is read from it. * marks the point of attachment. MB = Monomer B = PyrS, Alloc-pyrrolidine stapling residue (allyl carbamate on pyrrolidine N); MB(12) = Monomer B (PyrS), pyrrolidine stapling residue with N-allyl carbamate; MC(3) = Monomer C (PyrR), pyrrolidine stapling residue with N-allyl carbamate; MI = Monomer I = ReN, acyclic amine-bearing olefin stapling residue; MD = Monomer D = SgN, acyclic Alloc-amine olefin stapling residue; MG = Monomer G = RdN, acyclic alkyl-N(Alloc) stapling residue; R8 = C=CCCCCCC[C@@](C)(N)C(=O)O; S8 = C=CCCCCCC[C@](C)(N)C(=O)O; R5 = C=CCCC[C@@](C)(N)C(=O)O; Nle = CCCC[C@H](N)C(=O)O; Hex = hexyl, CCCCCC*; βAla = NCCC(=O)O
What was measured:
[1] = tested on: TCF/LEF Luciferase reporter HEK293 cell lines; assay: TCF/LEF reporter assay; assay type: cell-based; settings: Table 2
Procedure: FIG. 2. […] FIG. 2 depicts exemplary data from TCF/LEF reporter assays. Y-axes illustrate luminescence, and X-axes illustrate concentrations of peptides. […] TCF/LEF Luciferase reporter HEK293 cell lines (BPS Bioscience) were treated with dilution series of FP0025c and FP00217c Isomer 2 for 18 hours. 300 ng/mL of Wnt3a (Peprotech) was added to the cells for the final 6 hours of incubation. Luciferase activity was measured using Bright-Glo Luciferase Assay (Promega) according to manufacturer's protocol.
In some embodiments, a provided assay is a TCF/LEF reporter assay. In some embodiments, in an exemplary such assay, TCF/LEF Luciferase reporter HEK293 cell lines (BPS Bioscience) were treated with dilution series of provided peptides for 18 hours. 300 ng/mL of Wnt3a (Peprotech) was added to the cells for the final 6 hours of incubation. Luciferase activity was measured using Bright-Glo Luciferase Assay (Promega) according to manufacturer's protocol. […] Applicant also notes that teachings of the present disclosure are not restricted to a particular mechanism of action of described agents.

full-length beta-catenin [2] = target: T1, full-length beta-catenin (UniProt P35222 2-781, limits assumed); assay: competition FP, grade of FP EC50 (++: 100-500 nM)
T1 construct: mature; also called full-length ß-Catenin; β-catenin
T1 sequence (looked up): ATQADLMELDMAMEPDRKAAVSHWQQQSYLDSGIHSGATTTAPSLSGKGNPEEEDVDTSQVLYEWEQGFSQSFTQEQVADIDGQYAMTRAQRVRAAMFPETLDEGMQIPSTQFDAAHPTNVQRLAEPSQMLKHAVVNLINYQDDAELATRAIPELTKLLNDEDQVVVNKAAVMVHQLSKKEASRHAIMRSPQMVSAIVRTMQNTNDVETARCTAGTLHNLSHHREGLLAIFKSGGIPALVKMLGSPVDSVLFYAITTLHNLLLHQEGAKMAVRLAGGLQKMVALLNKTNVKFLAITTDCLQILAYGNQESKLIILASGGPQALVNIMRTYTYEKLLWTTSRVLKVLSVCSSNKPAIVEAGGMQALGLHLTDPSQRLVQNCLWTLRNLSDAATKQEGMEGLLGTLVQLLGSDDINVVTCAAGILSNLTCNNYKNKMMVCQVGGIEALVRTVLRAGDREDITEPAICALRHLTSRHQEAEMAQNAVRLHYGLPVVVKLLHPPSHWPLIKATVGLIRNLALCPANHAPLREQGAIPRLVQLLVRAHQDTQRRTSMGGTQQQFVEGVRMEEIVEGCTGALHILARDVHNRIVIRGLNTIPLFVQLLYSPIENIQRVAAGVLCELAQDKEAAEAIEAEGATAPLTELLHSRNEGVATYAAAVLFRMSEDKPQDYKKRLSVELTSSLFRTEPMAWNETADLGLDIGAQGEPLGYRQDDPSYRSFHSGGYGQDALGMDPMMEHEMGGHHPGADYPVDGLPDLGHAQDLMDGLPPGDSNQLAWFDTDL
Summary of the method: (§1)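 Compound 3-fold serially diluted from 5 µM in Tris pH 8.0, 250 mM NaCl buffer, added to premixed 15 nM full-length β-catenin and 20 nM FITC-labelled stapled axin-site peptide probe. Incubated 15 min in the dark, polarization read in duplicate.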

[3] = target: T2, biotinylated beta-catenin (UniProt P35222 134-665, limits assumed, biotinylated (site not stated)); assay: Table 3 'Binding Kd (nM)'; method not stated there (SPR in Example 2)
T2 construct: also called beta-catenin (SPR); armadillo domain of β-catenin
T2 sequence (looked up): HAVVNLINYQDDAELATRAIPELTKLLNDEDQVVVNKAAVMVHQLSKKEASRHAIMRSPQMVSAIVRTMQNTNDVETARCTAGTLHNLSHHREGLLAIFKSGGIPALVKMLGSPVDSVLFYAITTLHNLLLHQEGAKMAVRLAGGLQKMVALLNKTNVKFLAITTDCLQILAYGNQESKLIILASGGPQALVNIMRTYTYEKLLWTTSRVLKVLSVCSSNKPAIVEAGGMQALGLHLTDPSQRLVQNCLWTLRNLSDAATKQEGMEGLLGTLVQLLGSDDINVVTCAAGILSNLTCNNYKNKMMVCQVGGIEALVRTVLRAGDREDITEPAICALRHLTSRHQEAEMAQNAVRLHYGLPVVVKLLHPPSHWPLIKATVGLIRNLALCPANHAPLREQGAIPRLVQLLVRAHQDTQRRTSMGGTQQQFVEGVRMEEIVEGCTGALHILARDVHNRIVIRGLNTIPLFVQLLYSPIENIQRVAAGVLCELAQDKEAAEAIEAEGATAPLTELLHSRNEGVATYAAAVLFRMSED
Procedure: (§2) Additionally or alternatively, binding to beta-catenin may be measured by Surface Plasmon Resonance. In an exemplary assay, approximately 6 nmol dried peptide diluted in buffer (50 mM Tris pH 8.0, 300 mM NaCl, 2% glycerol, 0.5 mM TCEP, 0.5 mM EDTA, 0.005% Tween-20, 1 mg/mL CM Dextran, 0.02% w/v sodium azide) was assayed on a Biacore X100 using the Biacore Biotin CAPture Kit (GE Healthcare) and biotinylated beta-catenin. Results were analyzed using the Biacore X100 Evaluation Software.

full-length beta-catenin [4] = target: T1, full-length beta-catenin; assay: competition FP; amino staple (acyclic)
Procedure: (§3) In some embodiments, a competition fluorescence polarization assay is used to assess binding of provided compounds to beta-catenin. In an exemplary procedure, solutions of provided compounds, e.g., provided stapled peptides, were prepared in a buffer (e.g., 50 mM Tris pH 8.0, 250 mM NaCl, 2% glycerol, 0.5 mM EDTA, 0.02% w/v sodium azide) using a 3-fold serial dilution from 5 µM. Probe solution (15 nM full-length ß-Catenin, 20 nM FITC labeled peptide in buffer) was prepared and incubated for a period of time, e.g., 5 minutes, and the a volume, e.g., 40 µL per well plated in suitable plate, e.g., a black polystyrene 384-well plate (Corning). Equal volume of the serial diluted peptide was added to the plate and incubated protected from light for 15 minutes prior to read. Reads were performed on a Spectramax M5 (Molecular Devices) in duplicate. Suitable probe was FITC-PEG1-PQ-S5-ILD-S5-HVRRVWR (SEQ ID NO: 1) (hydrocarbon staple formed by two S5 via olefin metathesis) and/or FITC-bA-PQ-S5-ILD-S5-HVRRVWR (SEQ ID NO: 3) (hydrocarbon staple formed by two S5 via olefin metathesis). […] Another peptide, FPO217c (Ac-AR_8ILDAHIM$B5$RVW (SEQ ID NO: 280), with N-terminal proline removed and valine replaced with isoleucine compared to FP0025c) was prepared.

full-length beta-catenin [5] = target: T1, full-length beta-catenin; assay: competition FP, grade of FP EC50 (+: 500-5000 nM)
Summary of the method: as §1

full-length beta-catenin [6] = target: T1, full-length beta-catenin; assay: competition FP, grade of FP EC50 (+++: <=100 nM)
Summary of the method: as §1

[7] = target: T2, biotinylated beta-catenin; assay: SPR (Biacore, biotinylated beta-catenin)
Procedure: as §2

full-length beta-catenin [8] = target: T1, full-length beta-catenin; assay: competition FP, grade of FP EC50 (+: 500-5000 nM); competition FP vs FITC probe, 15 nM full-length beta-catenin, peptide diluted from 5 µM; grade + (500-5000 nM EC50)
Procedure: as §3

full-length beta-catenin [9] = target: T1, full-length beta-catenin; assay: Axin competition fluorescence polarization; 15 nM full-length beta-catenin, 20 nM FITC-StAx-33 probe displaced by titrated peptide
full-length beta-catenin [10] = target: T1, full-length beta-catenin; assay: competition FP
Procedure: as §3

Molecule: CCCC[C@H](NC(=O)[C@@H](NC(=O)[C@H](CCCNC(=N)N)NC(=O)[C@H](CCC(N)=O)NC(=O)[C@@H](NC(=O)[C@H](Cc1c[nH]cn1)NC(=O)[C@H](CCC(=O)O)NC(=O)[C@H](CC(=O)O)NC(=O)[C@H](CC(C)C)NC(=O)[C@@H](NC(=O)[C@H](CO)NC(=O)[C@H](CCC(=O)O)NC(=O)[C@@H]1CCCN1C(C)=O)[C@@H](C)CC)C(C)C)C(C)C)C(=O)N[C@@H](CCCCN)C(N)=O [FP0110, Ac-P-E-S-I-L-D-E-H-V-Q-R-V-nL-K-NH2] (Ac-PESILDEHVQRV[Nle]K-NH2)
- TCF/LEF Reporter Inhibition at 10 μM [1]: 19%

Molecule: Ac-P-A-MC-I-L-D-A-H-V-S8-R-V-W-NH2 (Ac-PA[MC(3)]ILDAHV[S8]RVW-NH2; staple 3-10) [FP0099]
- TCF/LEF Reporter Inhibition at 10 μM [1]: 38%

Molecule: Hex-P-A-R8-I-L-D-A-H-V-MB-R-V-W-NH2 (Hex-PA[R8]ILDAHV[MB(12)]RVW-NH2; staple 3-10) [FP0325c]
- TCF/LEF Reporter Inhibition at 10 μM [1]: 73%

Molecule: Ac-A[R8]ILDAHI[MD]RVW-NH2 (staple 2-9) [FP0338c]
- FP EC50 (full-length beta-catenin [2]): 100 to 500 nM
- Kd [3]: 10 nM

Molecule: AXILDAHIXRVW (not fully specified; Ac-A-R6-I-L-D-A-H-I-MF-R-V-W-NH2; amino staple R6/MF) [FP0502a]
- FP EC50 (full-length beta-catenin [8]): 500 to 5000 nM

Molecule: H-[βAla]A[R8]ILDAHI[MB]RVW-NH2 (staple 3-10) [FP0217c_bAfree]
- FP EC50 (full-length beta-catenin [6]): ≤ 100 nM
- Kd [7]: 9 nM

B4: FP0217c Isomer 2 (peptide)
peptide: Ac-A[R8]ILDAHI[MB]RVW-NH2
modifications: staple 2-9; also: Isomer 2, staple olefin E/Z not assigned
notes: also called FPO217c isomer 2; FP00217c Isomer 2
- EC50 (read off the curve) (full-length beta-catenin [9]): ~70 nM
- FP EC50 (full-length beta-catenin [6]): ≤ 100 nM
- fold better potency than FP0217c Isomer 1 (full-length beta-catenin [10]): > 10 fold
- Kd [7]: 2 nM
- Kd [3]: 4 nM

The remaining lines, values ahead:

- EC50 (full-length beta-catenin [4]): 1400 nM
- FP EC50 (full-length beta-catenin [5]): 500 to 5000 nM
B1: FP0783a (peptide)
peptide: Ac-PQ[MI]ILD[R5]HVRRVWR-NH2
modifications: staple 3-7; also: amino staple (-N(R')-), from carbamate staple by metathesis then Pd(0) CO2 extrusion
notes: also called FP-0783 (amino staple)

- FP EC50 (full-length beta-catenin [6]): ≤ 100 nM
- Kd [7]: 3 nM
- Kd [3]: 3 nM
Molecule: AXILDAHIXRVW (not fully specified; Ac-A-R4-I-L-D-A-H-I-MH-R-V-W-NH2; carbamate staple R4/MH) [FP0509c]

- EC50 (read off the curve) (full-length beta-catenin [9]): ~60 nM
- FP EC50 (full-length beta-catenin [6]): ≤ 100 nM
- Kd [7]: 4 nM
- Kd [3]: 4 nM
Molecule: AXILDAHIXRVW (not fully specified; Ac-A-MG-I-L-D-A-H-I-MB-R-V-W-NH2; carbamate staple MG/MB) [FP0597c]

- FP EC50 (full-length beta-catenin [8]): 500 to 5000 nM
Molecule: AXILDAHIXRVW (not fully specified; Ac-A-MI-I-L-D-A-H-I-S5-R-V-W-NH2; amino staple MI/S5) [FP0506a]

- EC50 (full-length beta-catenin [4]): 580 nM
- FP EC50 (full-length beta-catenin [5]): 500 to 5000 nM
B2: FP0776a (peptide)
peptide: Ac-PQ[R5]ILD[MG]HVRRVWR-NH2
modifications: staple 3-7; also: amino staple (-N(R')-), from carbamate staple by metathesis then Pd(0) CO2 extrusion
notes: also called FP-0776 (amino staple)

- EC50 (full-length beta-catenin [4]): 4750 nM
- FP EC50 (full-length beta-catenin [5]): 500 to 5000 nM
B3: FP0777a (peptide)
peptide: Ac-PQ[R5]ILD[MI]HVRRVWR-NH2
modifications: staple 3-7; also: amino staple (-N(R')-), from carbamate staple by metathesis then Pd(0) CO2 extrusion
notes: also called FP-0777 (amino staple)

Reference: US11198713B2, “Agents modulating beta-catenin functions and methods thereof” (FOG PHARMACEUTICALS, INC., priority 2017, dated 2021)
